Measurements published in patent publication US8143216B2, “Modified human growth hormone” (Ambrx, Inc., priority 2004, dated 2012).

What was measured:
[1] = target: T1, rat GHR ECD (L43R) (Rattus norvegicus, UniProt P16310, L61R); test: Biacore analysis of binding of GH to GHR; details: rat GHR ECD (L43R) immobilized on a CM5 chip, bivalent analyte model
T1 construct: (GHR ECD, amino acids S29-T238) was cloned into pET20b vector; made in house
T1 sequence (P16310 47-256 L61R): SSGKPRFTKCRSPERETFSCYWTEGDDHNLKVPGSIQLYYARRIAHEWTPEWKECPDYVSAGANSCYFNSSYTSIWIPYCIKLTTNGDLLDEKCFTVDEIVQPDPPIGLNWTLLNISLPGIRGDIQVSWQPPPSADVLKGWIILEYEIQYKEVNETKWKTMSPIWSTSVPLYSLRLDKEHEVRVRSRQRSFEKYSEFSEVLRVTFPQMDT
Description: Cloning and purification of rat GH receptor The extracellular domain of rat GH receptor (GHR ECD, amino acids S29-T238) was cloned into pET20b vector (Novagen) between Nde I and Hind III sites in frame with C-terminal 6H is tag. A mutation of L43 to R was introduced to further approximate the human GH receptor binding site (Souza et al., Proc Natl Acad Sci USA. (1995) 92(4): 959-63). Recombinant protein was produced in BL21 (DE3) E. coli cells (Novagen) by induction with 0.4 mM IPTG at 30° C. for 4-5 hours. After lysing the cells, the pellet was washed four times by resuspending in a dounce with 30 mL of 50 mM Tris, pH 7.6, 100 mM NaCl, 1 mM EDTA, 1% Triton X-100, and twice with the same buffer without Triton X-100. […] Refolding was accomplished by means of passing an aliquot of the inclusion body solution through a S100 (Sigma) gel filtration column, equilibrated with 50 mM Tris, pH 7.8, 1 M L-arginine, 3.7 mM cystamine, 6.5 mM cysteamine. Fractions containing soluble protein were combined and dialyzed against 50 mM Tris, pH 7.6, 200 mM NaCl, 10% glycerol. The sample was briefly centrifuged to remove any precipitate and incubated with an aliquot of Talon resin (Clontech), according to manufacturer's instructions. After washing the resin with 20 volumes of dialysis buffer supplemented with 5 mM imidazole, protein was eluted with 120 mM imidazole in dialysis buffer. Finally, the sample was dialyzed overnight against 50 mM Tris, pH 7.6, 30 mM NaCl, 1 mM EDTA, 10% glycerol, centrifuged briefly to remove any precipitate, adjusted to 20% glycerol final concentration, aliquoted and stored at −80 C. Concentration of the protein was measured by OD(280) using calculated extinction coefficient of ε=65,700 M^−1*cm^−1.
Approximately 600-800 RUs of soluble GHR ECD was immobilized on a Biacore™ CM5 chip, using a standard amine-coupling procedure, as recommended by the manufacturer. […] See, e.g., Cunningham et al. J Mol. Biol. (1993) 234(3): 554-63 and Wells J A. Proc Natl Acad Sci USA (1996) 93(1): 1-6).
Various concentrations of wild type or mutant GH (0.1-300 nM) in HBS-EP buffer (Biacore™, Pharmacia) were injected over the GHR surface at a flow rate of 40 μl/min for 4-5 minutes, and dissociation was monitored for 15 minutes post-injection. The surface was regenerated by a 15 second pulse of 4.5M MgCl2. […] Reference cell with no receptor immobilized was used to subtract any buffer bulk effects and non-specific binding.
Kinetic binding data obtained from GH titration experiments was processed with BiaEvaluation 4.1 software (BIACORE™). […] Equilibrium dissociation constants (Kd) were calculated as ratios of individual rate constants (koff/kon).

[2] = Pharmacokinetic studies, single s.c. dose in normal male Sprague-Dawley rats; type: in vivo, rat; details: for AUC0−>inf / Cl/f / Cmax / MRT / Terminal t1/2: single-dose 1 mg/kg bolus s.c., normal male Sprague-Dawley rats
Description: Pharmacokinetic properties of PEG-modified growth hormone compounds were compared to each other and to nonPEGylated growth hormone in male Sprague-Dawley rats (261-425 g) obtained from Charles River Laboratories. Catheters were surgically installed into the carotid artery for blood collection. Following successful catheter installation, animals were assigned to treatment groups (three to six per group) prior to dosing. Animals were dosed subcutaneously with 1 mg/kg of compound in a dose volume of 0.41-0.55 ml/kg. Blood samples were collected at various time points via the indwelling catheter and into EDTA-coated microfuge tubes. Plasma was collected after centrifugation, and stored at −80° C. until analysis. Compound concentrations were measured using antibody sandwich growth hormone ELISA kits from either BioSource International (Camarillo, Calif.) or Diagnostic Systems Laboratories (Webster, Tex.). Concentrations were calculated using standards corresponding to the analog that was dosed. Pharmacokinetic parameters were estimated using the modeling program WinNonlin (Pharsight, version 4.1). Noncompartmental analysis with linear-up/log-down trapezoidal integration was used, and concentration data was uniformly weighted.
Rats (n=3-4 per group) were given a single bolus dose of 1 mg/kg hGH wild-type protein (WHO hGH), His-tagged hGH polypeptide (his-hGH), or His-tagged hGH polypeptide comprising non-natural amino acid p-acetyl-phenylalanine at position 92 covalently linked to 30 kDa PEG (30 KPEG-pAF92(his)hGH). Plasma samples were taken over the indicated time intervals and assayed for injected compound as described.
Rats (n=3-6 per group) were given a single bolus dose of 1 mg/kg protein. hGH polypeptides comprising non-natural amino acid p-acetyl-phenylalanine covalently linked to 30 kDa PEG at each of six different positions were compared to WHO hGH and (his)-hGH. Plasma samples were taken over the indicated time intervals and assayed for injected compound as described. Concentration vs time curves were evaluated by noncompartmental analysis (Pharsight, version 4.1). Values shown are averages (+/− standard deviation). Cmax: maximum concentration; terminal t1/2: terminal half-life; AUC0->inf: area under the concentration-time curve extrapolated to infinity; MRT: mean residence time; Cl/f: apparent total, plasma clearance; Vz/f: apparent volume of distribution during terminal phase.

Substance	kon [1] [M⁻¹ s⁻¹]	also measured
E88pAF: hGH with p-acetyl-phenylalanine (pAF) substituted for E88	680000	
R16pAF: hGH with p-acetyl-phenylalanine (pAF) substituted for R16	680000	
F92pAF-20KD PEG: hGH comprising p-acetyl-phenylalanine at position 92 covalently linked to a 20 kDa PEG molecule	170000	
N12pAF: hGH with p-acetyl-phenylalanine (pAF) substituted for N12	1.25e+06	
K140pAF: hGH with p-acetyl-phenylalanine (pAF) substituted for K140	720000	
N99pAF: hGH with p-acetyl-phenylalanine (pAF) substituted for N99	220000	
K145pAF-30KPEG: hGH polypeptide comprising p-acetyl-phenylalanine at position 145 covalently linked to 30 kDa PEG		AUC0−>inf [2]: 13,162 ng × hr/ml; Cl/f [2]: 88 mL/h/kg; Cmax [2]: 634 ng/mL; MRT [2]: 17.82 h; Terminal t1/2 [2]: 5.87 h
R134pAF: hGH with p-acetyl-phenylalanine (pAF) substituted for R134	840000	
A155pAF: hGH with p-acetyl-phenylalanine (pAF) substituted for A155	580000	
Y35pAF: hGH with p-acetyl-phenylalanine (pAF) substituted for Y35	780000	
Y143pAF-30KPEG: hGH polypeptide comprising p-acetyl-phenylalanine at position 143 covalently linked to 30 kDa PEG		AUC0−>inf [2]: 17,494 ng × hr/ml; Cl/f [2]: 59 mL/h/kg; Cmax [2]: 803 ng/mL; MRT [2]: 18.83 h; Terminal t1/2 [2]: 6.02 h
G131pAF-30KPEG: hGH polypeptide comprising p-acetyl-phenylalanine at position 131 covalently linked to 30 kDa PEG		AUC0−>inf [2]: 6,978 ng × hr/ml; Cl/f [2]: 161 mL/h/kg; Cmax [2]: 497 ng/mL; MRT [2]: 14.28 h; Terminal t1/2 [2]: 4.41 h

Further lines, with some results ahead:

kon [1] [M⁻¹ s⁻¹]	Substance	also measured
680000	R134pAF-5KD PEG: hGH comprising p-acetyl-phenylalanine at position 134 linked to 5 kDa PEG	
560000	R94pAF: hGH with p-acetyl-phenylalanine (pAF) substituted for R94	
~6000	Y103pAF: hGH with p-acetyl-phenylalanine (pAF) substituted for Y103	
70000	S95pAF: hGH with p-acetyl-phenylalanine (pAF) substituted for S95	
620000	F92pAF-5KD PEG: hGH comprising p-acetyl-phenylalanine at position 92 covalently linked to a 5 kDa PEG molecule	
840000	Y111pAF: hGH with p-acetyl-phenylalanine (pAF) substituted for Y111	
660000	Q91pAF: hGH with p-acetyl-phenylalanine (pAF) substituted for Q91	
130000	F92pAF-30KD PEG: His-tagged hGH polypeptide comprising p-acetyl-phenylalanine at position 92 covalently linked to 30 kDa PEG	circulation (plasma concentrations) compared to control hGH ([2]; single bolus s.c. dose of 1 mg/kg in rats, FIG. 15): dramatically extended circulation compared to control hGH; AUC0−>inf [2]: 10,539 ng × hr/ml; Cl/f [2]: 135 mL/h/kg; Cmax [2]: 663 ng/mL; MRT [2]: 15.05 h; Terminal t1/2 [2]: 4.51 h
860000	F92pAF: hGH with p-acetyl-phenylalanine (pAF) substituted for F92	
780000	Y143pAF: hGH with p-acetyl-phenylalanine (pAF) substituted for Y143	
640000	K145pAF: hGH with p-acetyl-phenylalanine (pAF) substituted for K145	
620000	G136pAF: hGH with p-acetyl-phenylalanine (pAF) substituted for G136	
600000	G131pAF: hGH with p-acetyl-phenylalanine (pAF) substituted for G131	
70000	R134pAF-30KD PEG: hGH polypeptide comprising p-acetyl-phenylalanine at position 134 covalently linked to 30 kDa PEG	AUC0−>inf [2]: 7,304 ng × hr/ml; Cl/f [2]: 151 mL/h/kg; Cmax [2]: 566 ng/mL; MRT [2]: 12.15 h; Terminal t1/2 [2]: 4.36 h
680000	F139pAF: hGH with p-acetyl-phenylalanine (pAF) substituted for F139	
640000	P133pAF: hGH with p-acetyl-phenylalanine (pAF) substituted for P133	
720000	T135pAF: hGH with p-acetyl-phenylalanine (pAF) substituted for T135	
